Results: patent US20160266124A1 (published 2016)
Values belong to the binder of their own block, whether it stands above or below them.

Biological target: 15F12
Experiment: SPR

Kd: 300 pM
B1: pHP2 (other)
chain: VDSGNDVTDIADDGCPKPPEIAHGYVEHSVRYQCKNYYKLRTEGDGVYTLNDKKQWINKAVGDKLPECEADDGCPKPPEIAHGYVEHSVRYQCKNYYKLRTEGDGVYTLNNEKQWINKAVGDKLPECEAVCGKPKNPANPVQRILGGHLDAKGSFPWQAKMVSHHNLTTGATLINEQWLLTTAKNLFLNHSENATAKDIAPTLTLYVGKKQLVEIEKVVLHPNYSQVDIGLIKLKQKVSVNERVMPICLPSKDYAEVGRVGYVSGWGRNANFKFTDHLKYVMLPVADQDQCIRHYEGSTVPEKKTPKSPVGVQPILNEHTFCAGMSKYQEDTCYGDAGSAFAVHDLEEDTWYATGILSFDKSCAVAEYGVYVKVTSIQDWVQKTIAENHHHHHH

Kd: 300 pM
B2: pHP1 (other)
chain: VDSGNDVTDIADDGCPKPPEIAHGYVEHSVRYQCKNYYKLRTEGDGVYTLNNEKQWINKAVGDKLPECEAVCGKPKNPANPVQRILGGHLDAKGSFPWQAKMVSHHNLTTGATLINEQWLLTTAKNLFLNHSENATAKDIAPTLTLYVGKKQLVEIEKVVLHPNYSQVDIGLIKLKQKVSVNERVMPICLPSKDYAEVGRVGYVSGWGRNANFKFTDHLKYVMLPVADQDQCIRHYEGSTVPEKKTPKSPVGVQPILNEHTFCAGMSKYQEDTCYGDAGSAFAVHDLEEDTWYATGILSFDKSCAVAEYGVYVKVTSIQDWVQKTIAEN
